B1: ET150-156 scFv (scFv)
scFv: QSALTQPASVSGSPGQSITISCTGTSRDVGGYNYVSWYQQYPGKAPKLMIYEVSKRPSGVSNRFSGSKSGNTASLTISGLQAEDEADYYCSSYTSSSTLDFGTGTKVTVLGSRGGGGSGGGGSGGGGSLEMAQVQLVQSGAEVKQPGASVKVSCQASGYTFTTYYMHWVRQAPGQGLEWMGIINPNGGGTFYAQKFQDRVTMTRDTSTGTVYMELSSLRSDDTAVYYCARGHKVYKSHPTGGYDRWGQGTLVTVSS
notes: also called ET150-6 scFv
B2: ET150-155 scFv (scFv)
scFv: QSVLTQPPSASGTPGQRVTISCSGSRSNVGGNYVFWYQQVPGATPKLLIYRSNQRPSGVPDRFAGSKSGSSASLAISGLRSEDEADYYCATWDDSLSGFVFGTGTKVTVLGSRGGGGSGGGGSGGGGSLEMAEVQLVESGGGLVKPGGSLRLSCAASGFTFSDYYMSWIRQAPGKGLEWVSYISSSGSTIYYADSVKGRFTISRDNAKNSLYLQMNSLRAEDTAVYYCARGYGKAYDQWGQGTLVTVSS
notes: also called ET150-5 scFv
B3: ET150-031 scFv (scFv)
scFv: AELQSVVTQPPSVSAAPGQRVTISCSGGSSNIGNNYVSWFQQLPRTAPKLLIYDNNKRPSGIPDRFSGSKSGTSAALDITVLQTGDEADYYCGTWDSSLRNWVFGGGTKLTVLGSRGGGGSGGGGSGGGGSLEMAQMQLVQSGAEVKKPGASVKVSCKASGYTFTSYYMHWVRQAPGQGLEWMGIINPSGGSTSYAQKFQGRVTMTRDTSTSTVYMELSSLRSEDTAVYYCARGQKYHSQYSRGGTGGGMTQDMWGQGTLVTVSS
notes: also called ET150-181 scFv
B4: ET150-18 mIgG1 (antibody, V domains shown)
VH: EVQLVESGGGLIQPGGSLRLSCAASGFTFSNYAMNWVRQAPGKGLEWVSTINGRGSSTIYADSVKGRFTISRDNSKNTLYLQMNSLRAEDTATYYCARYISRGLGDSWGQGTLVTV
VL: QSVVTQPPSMSAAPGQQVTISCSGGNSNIERNYVSWYLQLPGTAPKLVIFDNDRRPSGIPDRFSGSKSGTSATLGITGLQTGDEADYYCGTWDSSLRGWVFGGGTKLTVLG
notes: also called ET150-168
B5: ET150-159 scFv (scFv)
scFv: QSVLTQPPSASGTPGQRVTISCSGSSSNIGSNYVYWYQQLPGTAPKLLIYRNNQRPSGVPDRFSGSKSGTSASLAISGLRSEDEADYYCAAWDDSLSGWVFGGGTKLTVLGSRGGGGSGGGGSGGGGSLEMAQVQLVQSGAEVKKPGSSVKVSCKASGGTFSSYAISWVRQAPGQGLEWMGWMNPNSGNTGYAQKFQGRVTMTRNTSISTAYMELSSLRSEDTAVYYCARYQSYKGSQSDSWGQGTLVTVSS
notes: also called ET150-9 scFv
B6: ET150-5 mIgG1 (antibody, V domains shown)
VH: EVQLVESGGGLVKPGGSLRLSCAASGFTFSDYYMSWIRQAPGKGLEWVSYISSSGSTIYYADSVKGRFTISRDNAKNSLYLQMNSLRAEDTAVYYCARGYGKAYDQWGQGTLVTVSS
VL: QSVLTQPPSASGTPGQRVTISCSGSRSNVGGNYVFWYQQVPGATPKLLIYRSNQRPSGVPDRFAGSKSGSSASLAISGLRSEDEADYYCATWDDSLSGFVFGTGTKVTVLG
notes: also called ET150-155
B7: ET150-168 scFv (scFv)
scFv: QSVVTQPPSMSAAPGQQVTISCSGGNSNIERNYVSWYLQLPGTAPKLVIFDNDRRPSGIPDRFSGSKSGTSATLGITGLQTGDEADYYCGTWDSSLRGWVFGGGTKLTVLGSRGGGGSGGGGSGGGGSLEMAEVQLVESGGGLIQPGGSLRLSCAASGFTFSNYAMNWVRQAPGKGLEWVSTINGRGSSTIYADSVKGRFTISRDNSKNTLYLQMNSLRAEDTATYYCARYISRGLGDSWGQGTLVTV
notes: also called ET150-18 scFv
B8: ET150-033 scFv (scFv)
scFv: AELQAVLTQPPSASGTPGQRVTISCSGSSSNIGSNYVYWYQQLPGTAPKLLIYRNNQRPSGVPDRFSGSKSGTSASLAISGLRSEDEADYYCAAWDDSLSGRVFGTGTKVTVLGSRGGGGSGGGGSGGGGSLEMAQLQLVQSGAEVKKPGSSVKVSCKASGYTFNTYYLHWVRQAPGQGLEWMGRINPNNGGTNYAQKFQGRVTMTRDTSINTAYMELSRLRSDDTAVYYCARSYDYWGQGTLVTVSS
notes: also called ET150-183 scFv
B9: ET150-157 scFv (scFv)
scFv: SYELTQPPSASGTPGQRVTISCSGSSSNIGSNYVSWYQQLPGTAPKLLIYRNNQRPSGVPDRFSGSKSGTSASLAISGLRSEDEADYYCAAWDDSLSGVVFGGGTKLTVLGSRGGGGSGGGGSGGGGSLEMAEVQLVQSGAEVKKPGSSVKVSCKASGGTFSSYAISWVRQAPGQGLEWMGGIIPIFGTAKYAQKFQGRVTITADESTSTAYMELSSLRSEDTAVYYCARSHVAWSLLDYWGQGTLVTVSS
notes: also called ET150-7 scFv
B10: ET150-151 scFv (scFv)
scFv: QSVVTQPASVSGSPGQSITISCTGTSSDVGGYNYVSWYQQHPGKAPKLMIYDVSKRPSGVSNRFSGSKSGNTASLTISGLQAEDEADYYCSSYTSSSTLVFGGGTKLTVLGSRGGGGSGGGGSGGGGSLEMAEVQLVESGGAFVQPGGSLRLSCAASGFTFSSYAMTWVRQAPGKGLEWVSTISGRGRSTFYADSVKGRFTISRDNSKNTLYLQMNSLRAEDTAVYYCARYYHAGAFDLWGQGTLVTVSS
notes: also called ET150-1 scFv
B11: ET150-2 mIgG1 (antibody, V domains shown)
VH: QMQLVQSGAEVKKPGASVKVSCKASGYTFNRYAITWVRQAPGQGLEWMGWISAYNGNSHYAQKLQGRVTMTTDTSTGTAYMELRRLRSDDTAVYYCARMAYDSWGQGTLVTVSS
VL: QSVLTQPASVSGSPGQSLTISCTGTSNDVGAYKYVSWYQQYPGKAPKLILYDVFKRPSGVSNRFSGSKSDNTASLTISGLQAEDEADYYCFSLTSSNTYVFGTGTKVTVLG
notes: also called ET150-152
B12: ET150-8 mIgG1 (antibody, V domains shown)
VH: QVQLVESGGGLVHPGGSLRLSCAASGFTFRSHSMNWVRQAPGKGLEWVSSISSDSTYTYYADSVKGRFTISRDNAKNSLYLQMNSLRAEDTAVYYCARSGGQWKYYDYWGQGTLVTVSS
VL: SSELTQDPAVSVALGQTVRITCQGDSLRSYYASWYQQKPGQAPVLVIYGKNNRPSGIPDRFSGSSSGNTASLTITGAQAEDEADYYCNSRDSSGNPPVVFGGGTKLTVLG
notes: also called ET150-158
B13: ET150-030 scFv (scFv)
scFv: AELQSVLTQPPSVSGAPGQRVTISCTGSSSNIGAGYDVHWYQQLPGRAPKLLIYGNSNRPSGVPDRFSGSKSGTSASLAITGLQAEDEADYYCQSYDSSLRGYVFGTGTKVTVLGSRGGGGSGGGGSGGGGSLEMAQVQLVQSGGGVVQPGRSLRLSCAASGFSFSGTAMHWVRQAPGKGLEWVSTISSTGRSTYYRDSVKGRFTISRDNSKNTLYLQMNSLRGEDTAVYYCARPVSSMTLSIQSDGWGQGTLVTVSS
notes: also called ET150-180 scFv
B14: ET150-152 scFv (scFv)
scFv: QSVLTQPASVSGSPGQSLTISCTGTSNDVGAYKYVSWYQQYPGKAPKLILYDVFKRPSGVSNRFSGSKSDNTASLTISGLQAEDEADYYCFSLTSSNTYVFGTGTKVTVLGSRGGGGSGGGGSGGGGSLEMAQMQLVQSGAEVKKPGASVKVSCKASGYTFNRYAITWVRQAPGQGLEWMGWISAYNGNSHYAQKLQGRVTMTTDTSTGTAYMELRRLRSDDTAVYYCARMAYDSWGQGTLVTVSS
notes: also called ET150-2 scFv
B15: ET150-154 scFv (scFv)
scFv: QAVLTQPPSASGTPGQRVTISCSGSSSNIGSNYVYWYQQLPGTAPKLLIYRNNQRPSGVPDRFSGSKSGTSASLAISGLRSEDEADYYCAAWDDSLSGYVFGTGTKVTVLGSRGGGGSGGGGSGGGGSLEMAQVQLVQSGAEVQRPGASVRVSCKAIAYTFTDYYIHWVRQAPGQGPEWMGWINPKSGRTQYAPKFQDRVTLARETPISTASMELRGLTSDDTAVYYCARVYGYSRWSGFDLWGQGTLVTVSS
notes: also called ET150-4 scFv
B16: ET150-032 scFv (scFv)
scFv: AELQSVLTQPPSASGSPGQSLTISCTGTSSDVGGYNHVSWYQQYPGKAPKLMIYEVTKRPSGVPDRFSGSKSGNTASLTVSGLQAEDEADYYCSSYAGSAHWVFGGGTKLTVLGSRGGGGSGGGGSGGGGSLEMAEVQLVQSGAEVKKPGASVKVSCKASGYTFSRYYIHWVRQAPGQGLEWMGWMNPNSGNTGYAQKFQGRVTMTRNTSISTAYMELSSLRSEDTAVYYCARGRYHVIDYWGQGTLVTVSS
notes: also called ET150-182 scFv
B17: ET150-171 scFv (scFv)
scFv: QSALTQPASVSGSPGQSITISCTGTSSDVGGYNFVSWYQQHPGKAPKVMIYDVSKRPSGISNRFSGSKSGNTASLTISGLQVEDEAEYYCSSYTSTRTVIFAGGTKVTVLGSRGGGGSGGGGSGGGGSLEMAQVQLVQSGAEVKKPGASVKVSCKASGYTFTSYYMHWVRQAPGQGLEWMGIINPSGGSTRYAQKFQGRVTMTRDTSTSTVYMELSSLRSEDTAVYYCARGSSRWGGWTGDYWGQGTLVTVSS
notes: also called ET150-21 scFv
B18: ET150-158 scFv (scFv)
scFv: SSELTQDPAVSVALGQTVRITCQGDSLRSYYASWYQQKPGQAPVLVIYGKNNRPSGIPDRFSGSSSGNTASLTITGAQAEDEADYYCNSRDSSGNPPVVFGGGTKLTVLGSRGGGGSGGGGSGGGGSLEMAQVQLVESGGGLVHPGGSLRLSCAASGFTFRSHSMNWVRQAPGKGLEWVSSISSDSTYTYYADSVKGRFTISRDNAKNSLYLQMNSLRAEDTAVYYCARSGGQWKYYDYWGQGTLVTVSS
notes: also called ET150-8 scFv

Key:
[1] = molecular target: T1, human G-protein coupled receptor family C group 5 member D (GPRC5D) (human, UniProt Q9NZD1 1-345); assay: FACS, scFv phage clones on 3T3 cells overexpressing GPRC5D
T1 construct: Overexpressed on 3T3 cells in the FACS assays; also called human GPRC5D; 3T3-GPRC5D
T1 sequence (Q9NZD1 whole entry): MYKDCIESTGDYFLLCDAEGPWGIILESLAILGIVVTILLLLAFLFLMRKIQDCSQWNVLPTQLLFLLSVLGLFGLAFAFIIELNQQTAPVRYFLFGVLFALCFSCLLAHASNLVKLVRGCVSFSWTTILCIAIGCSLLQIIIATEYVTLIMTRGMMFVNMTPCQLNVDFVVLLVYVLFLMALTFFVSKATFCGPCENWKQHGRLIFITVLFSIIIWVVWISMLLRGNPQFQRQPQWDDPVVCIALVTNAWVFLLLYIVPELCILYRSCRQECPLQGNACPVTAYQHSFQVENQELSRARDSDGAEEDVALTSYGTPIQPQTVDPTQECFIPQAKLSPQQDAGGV

[2] = molecular target: T1, human G-protein coupled receptor family …; assay: flow cytometry: phage clone on 3T3-GPRC5D cells (printed 3T3-ET150), anti-M13 mouse antibody, then APC-labelled anti-mouse IgG; control without phage (A04 anti-M13+ APC mIgG) median 10.9
Procedure: FACS Screening. […] Phage clones were incubated with 3T3-GPRC5D cell line, then with anti-M13 mouse antibody. Finally APC-labeled anti-mouse IgG 2nd antibody was added to the reaction after washing again. The binding was measured by FACS and expressed as mean fluorescence intensity (MFI). Cells incubated with M13 K07 helper phage and cells only were used as negative controls.

[3] = molecular target: T1, human G-protein coupled receptor family …; assay: flow cytometry (MFI, FL2) on 3T3-GPRC5D and parental 3T3 cells at 10 and 1 µg/mL, PE-labelled anti-mouse IgG secondary antibody
Procedure: Each antibody (ET150-1, ET150-2, ET150-5, ET150-8, ET150-18) was incubated with 3T3 or 3T3-GPRC5D cells at 10 or 1 μg/mL, then with anti-M13 mouse antibody. Finally PE-labeled anti-mouse IgG 2nd antibody was added to the reaction. The binding was measured by FACS and expressed as mean fluorescence intensity (MFI) (FIG. 13). Cells incubated with 2nd antibody alone, ET901 mIgG1 isotype control and cells only were used as negative controls.

Binder | binding result [1] | further results
B1 | binds | 
B2 |  | Median, RED2-HLin [2]: 3220
B3 | binds | 
B4 |  | binding result [3]: binds
B5 | binds | 
B6 |  | binding result [3]: binds
B7 |  | Median, RED2-HLin [2]: 3180
B8 | binds | 
B9 | binds | 
B10 |  | Median, RED2-HLin [2]: 3230
B11 |  | binding result [3]: binds
B12 |  | binding result [3]: binds
B13 | binds | 
B14 |  | Median, RED2-HLin [2]: 2400
B15 | binds | 
B16 | binds | 
B17 | binds | 
B18 |  | Median, RED2-HLin [2]: 3110
